This note sets out measurements from paper PMC8893600 (Kidney international, 2021).

The target in the assay is p65 protein used for surface plasmon resonance (UniProt Q04206 1-551). The assay can be described thus: SPR. (SPR reads the build-up and loss of mass on a sensor chip optically.)
Chain of p65 protein used for surface plasmon resonance (Q04206 whole entry): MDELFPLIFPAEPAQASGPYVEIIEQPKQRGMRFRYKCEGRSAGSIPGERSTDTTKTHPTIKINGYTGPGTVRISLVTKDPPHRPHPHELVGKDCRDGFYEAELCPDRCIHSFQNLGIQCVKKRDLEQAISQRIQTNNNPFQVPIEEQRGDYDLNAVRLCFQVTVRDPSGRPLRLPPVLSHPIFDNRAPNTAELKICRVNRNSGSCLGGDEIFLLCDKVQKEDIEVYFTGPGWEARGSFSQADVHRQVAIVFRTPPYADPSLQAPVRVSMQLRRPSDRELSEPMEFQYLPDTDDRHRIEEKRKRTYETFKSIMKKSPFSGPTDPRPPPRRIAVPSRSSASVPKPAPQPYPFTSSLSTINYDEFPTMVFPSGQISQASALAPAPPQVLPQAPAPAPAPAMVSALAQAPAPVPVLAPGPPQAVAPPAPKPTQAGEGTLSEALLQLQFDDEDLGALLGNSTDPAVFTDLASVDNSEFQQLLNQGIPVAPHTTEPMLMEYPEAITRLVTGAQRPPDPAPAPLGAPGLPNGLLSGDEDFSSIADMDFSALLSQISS

B1: ANXA1 protein used for surface plasmon resonance (natural protein, UniProt P04083 1-346, looked up)
chain: MAMVSEFLKQAWFIENEEQEYVQTVKSSKGGPGSAVSPYPTFNPSSDVAALHKAIMVKGVDEATIIDILTKRNNAQRQQIKAAYLQETGKPLDETLKKALTGHLEEVVLALLKTPAQFDADELRAAMKGLGTDEDTLIEILASRTNKEIRDINRVYREELKRDLAKDITSDTSGDFRNALLSLAKGDRSEDFGVNEDLADSDARALYEAGERRKGTDVNVFNTILTTRSYPQLRRVFQKYTKYSKHDMNKVLDLELKGDIEKCLTAIVKCATSKPAFFAEKLHQAMKGVGTRHKALIRIMVSRSEIDMNDIKAFYQKMYGISLCQAILDETKGDYEKILVALCGGN
Regarding B1, the Kd – broadly, the concentration at which binding is half-saturated – was 13 nM.
